Assay results as given in patent publication US20210253716A1 (Regeneron, published 2021).

T1: human ACVR1 extracellular domain expressed with a C-terminal mouse IgG2a Fc tag (human)
T1 construct: also called hACVR1-mFc
T1 chain: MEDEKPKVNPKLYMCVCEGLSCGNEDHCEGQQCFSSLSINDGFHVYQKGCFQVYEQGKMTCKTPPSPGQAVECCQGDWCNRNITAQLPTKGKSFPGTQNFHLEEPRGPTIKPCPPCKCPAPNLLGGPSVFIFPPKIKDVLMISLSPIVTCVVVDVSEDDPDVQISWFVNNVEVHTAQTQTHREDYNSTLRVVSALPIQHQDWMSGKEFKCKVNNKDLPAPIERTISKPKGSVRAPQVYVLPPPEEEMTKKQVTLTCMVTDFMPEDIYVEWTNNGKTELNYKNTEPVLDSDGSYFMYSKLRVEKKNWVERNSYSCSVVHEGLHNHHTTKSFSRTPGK

T2: human ACVR1 extracellular domain expressed with a C-terminal myc-myc-hexahistidine tag (human)
T2 construct: also called hACVR1-MMH
T2 chain: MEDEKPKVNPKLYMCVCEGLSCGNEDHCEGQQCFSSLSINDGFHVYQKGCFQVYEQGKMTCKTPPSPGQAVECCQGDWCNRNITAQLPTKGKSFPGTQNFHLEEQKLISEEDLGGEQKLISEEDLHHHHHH

T3: mouse ACVR1 extracellular domain expressed with a C-terminal myc-myc-hexahistidine tag (mouse)
T3 construct: also called mACVR1-MMH; mACVR1-mmh
T3 chain: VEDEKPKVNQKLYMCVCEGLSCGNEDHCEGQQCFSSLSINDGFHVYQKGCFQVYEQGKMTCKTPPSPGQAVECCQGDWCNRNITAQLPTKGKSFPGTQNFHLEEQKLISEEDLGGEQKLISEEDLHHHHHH

T4: full length human ACVR1 (R206H) on HEK293/BRE-luc/hACVR1-R206H-clone H2 cells (human, UniProt Q04771 21-509)
T4 sequence: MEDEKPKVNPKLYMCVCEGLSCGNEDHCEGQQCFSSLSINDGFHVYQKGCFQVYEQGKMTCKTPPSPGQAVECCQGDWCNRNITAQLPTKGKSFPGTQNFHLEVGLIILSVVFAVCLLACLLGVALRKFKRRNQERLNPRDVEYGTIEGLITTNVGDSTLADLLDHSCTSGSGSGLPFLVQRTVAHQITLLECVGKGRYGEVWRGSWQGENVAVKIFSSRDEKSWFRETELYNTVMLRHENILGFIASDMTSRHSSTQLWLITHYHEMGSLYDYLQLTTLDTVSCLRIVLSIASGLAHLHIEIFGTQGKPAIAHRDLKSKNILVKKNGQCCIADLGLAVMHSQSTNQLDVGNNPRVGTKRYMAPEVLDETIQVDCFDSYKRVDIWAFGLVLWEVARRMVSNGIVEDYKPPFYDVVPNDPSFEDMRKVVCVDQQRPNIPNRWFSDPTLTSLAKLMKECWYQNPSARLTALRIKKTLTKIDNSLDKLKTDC


Columns and labels:
[1] = biological target: T1, human ACVR1 extracellular domain …; test: SPR (Biacore), mAb captured, 25 C
Procedure: (§1) Equilibrium dissociation constants (KD) for ACVR1 binding to purified anti-ACVR1 monoclonal antibodies were determined using a real-time surface plasmon resonance biosensor (SPR-Biacore), Biacore 4000. All binding studies were performed in 10 mM HEPES, 150 mM NaCl, 3 mM EDTA, and 0.05% v/v surfactant Tween-20, pH 7.4 (HBS-ET) running buffer at 25° C. and 37° C. The Biacore CM5 sensor surface was first derivatized by amine coupling with a monoclonal mouse anti-human Fc antibody (GE, #BR-1008-39 or REGN2567) to capture anti-ACVR1 monoclonal antibodies. […] ACVR1 reagents were then injected over anti-human Fc captured anti-ACVR1 monoclonal antibody surface for 2.5-3 minutes at a flow rate of 30 μL/minute, while the dissociation of monoclonal antibody bound ACVR1 reagent was monitored for 10-15 minutes in HBS-ET running buffer. Kinetic association rate constant (kₐ) and dissociation rate constant (kd) were determined by fitting the real-time sensorgrams to a 1:1 binding model using Scrubber 2.0c curve-fitting software. Binding dissociation equilibrium constants (KD) and dissociative half-lives (t½) were calculated from the kinetic rate constants as: […]

[2] = biological target: T2, human ACVR1 extracellular domain …; test: SPR (Biacore), mAb captured, 25 C
Procedure: as §1

[3] = biological target: T3, mouse ACVR1 extracellular domain …; test: SPR (Biacore), mAb captured, 25 C
Procedure: as §1

[4] = biological target: T4, full length human ACVR1 (R206H) on …; test: cell-based or functional assay
[5] = biological target: T1, human ACVR1 extracellular domain …; test: SPR (Biacore), mAb captured, 37 C
Procedure: as §1

[6] = biological target: T2, human ACVR1 extracellular domain …; test: SPR (Biacore), mAb captured, 37 C
Procedure: as §1

[7] = biological target: T3, mouse ACVR1 extracellular domain …; test: SPR (Biacore), mAb captured, 37 C
Procedure: as §1

[8] = biological target: T4, full length human ACVR1 (R206H) on …; test: flow cytometry, 70 nM antibody, HEK293/hACVR1-R206H cells
Procedure: Cells were fixed using BD CytoFix™ (Becton Dickinson, #554655) and analyzed on either Hypercyt® or IQue® Flow Cytometers (Intellicyt®). Unstained and secondary antibody alone controls were also tested for all cell lines. The results were analyzed using ForeCyt® (IntelliCyt®) software to determine the geometric means of fluorescence for viable cells and binding ratios were calculated by normalizing the geometric mean value of the test condition by the geometric mean value of the corresponding unstained cells.

| Binder | 100 nM Ag Bound (RU) [1] | Kd [1] | koff [1] | kon [1] | t½ [1] | 900 nM or 100 nM Ag Bound (RU) [2] | Kd [2] | koff [2] | kon [2] | t½ [2] | 900 nM or 100 nM Ag Bound (RU) [3] | % Inhibition, BRE-luc reporter, 2 nM hBMP7 [4] | IC50 [M], BRE-luc reporter, 2 nM hBMP7 [4] | 100 nM Ag Bound (RU) [5] | Kd [5] | koff [5] | kon [5] | t½ [5] | 900 nM or 100 nM Ag Bound (RU) [6] | Kd [6] | other results |
| --- | --- | --- | --- | --- | --- | --- | --- | --- | --- | --- | --- | --- | --- | --- | --- | --- | --- | --- | --- | --- | --- |
| mAb29257 (antibody, human IgG4 S228P, kappa, V domains shown) VH: EVQLVESGGNLVQPGGSLRLSCAASGFTFSNYAMSWVRQAPGKGLEWVSGITGNGIKTYYSVSAKGRFTISRDNSKNTLFLQMNSLRAEDTAIYYCVKERGHSWFGDWFDPWGQGTLVTVSS VL: DIVMTQTPLSSPVTLGQPASISCRSSQGLVNSDGNTYLSWLHQRPGQPPRLLIYEISNRFSGVPDRFSGSGAGTDFTLKISRVEAEDVGFYYCMQSTQFPLTFGGGTKVEIKR | 157 RU | 0.936 nM | 0.000121 s⁻¹ | 129000 M⁻¹ s⁻¹ | 95 min | 47 RU | 8.43 nM | 0.000521 s⁻¹ | 61800 M⁻¹ s⁻¹ | 22 min | -2 RU | 62% | 1.4e-10 M | 201 RU | 1.58 nM | 0.000495 s⁻¹ | 314000 M⁻¹ s⁻¹ | 23 min | 64 RU | 21.4 nM | koff [6]: 0.00326 s⁻¹; kon [6]: 153000 M⁻¹ s⁻¹; t½ [6]: 3.5 min; 900 nM or 100 nM Ag Bound (RU) [7]: 2 RU; MFI - Normalized to Unstained Control [8]: 1660 fold |
| mAb27245 (antibody, human IgG4 S228P, kappa, V domains shown) VH: QVQLQQWGAGLLKPSETLSLTCAVYNGSFSSYYWNWIRQPPGKGLEWLGEINHRGSTNYNPSLTSRVTISVDTSKNQFSLKLTSVTAADTAIYYCTAHTRGFLYWGQGTLVTVSS VL: DIQMTQSPSSLSASVGDRVTITCQASQDINNYLNWYQQKPGKAPKLLIYDASNLVPGVPSRFSGTGSGTDFSFTISSLQPEDIATYYCQHYYDLPLTFGGGTTVAIRR | 145 RU | 1.34 nM | 5.06e-05 s⁻¹ | 38100 M⁻¹ s⁻¹ | 228 min | 35 RU | 8.01 nM | 0.000207 s⁻¹ | 25800 M⁻¹ s⁻¹ | 56 min | 1 RU | 110% | 1.5e-09 M | 222 RU | 3.65 nM | 0.000335 s⁻¹ | 91700 M⁻¹ s⁻¹ | 34 min | 66 RU | 32.2 nM | binding result [3]: no binding (tested: 900 nM or 100 nM); koff [6]: 0.00173 s⁻¹; kon [6]: 53900 M⁻¹ s⁻¹; t½ [6]: 7 min; 900 nM or 100 nM Ag Bound (RU) [7]: 2 RU; MFI - Normalized to Unstained Control [8]: 1660 fold |
| mAb27241 (antibody, human IgG4 S228P, kappa, V domains shown) VH: QVQLQQWGAGLLKPSETLSLTCAVYNGSFSSYYWNWIRQPPGKGLEWLGEINHRGSTNYNPSLTSRVTISVDTSKNQFSLKLTSVTAADTAIYYCTAHTRGFLYWGQGTLVTVSS VL: DIQMTQSPSSLSASVGDRVTITCQASQDINIYLNWYQQQPGKAPKLLIYDVSNLVPGVPSRFSGTGSGTHFSFTISSLQPEDIATYYCQHYDDLPLTFGGGTTVAIRR | 135 RU | 0.918 nM | 3.2e-05 s⁻¹ | 34900 M⁻¹ s⁻¹ | 361 min | 34 RU | 6.52 nM | 0.000123 s⁻¹ | 18900 M⁻¹ s⁻¹ | 94 min | 1 RU | 110% | 1.8e-09 M | 216 RU | 2.44 nM | 0.000201 s⁻¹ | 82200 M⁻¹ s⁻¹ | 57 min | 66 RU | 19.7 nM | binding result [3]: no binding (tested: 900 nM or 100 nM); koff [6]: 0.000852 s⁻¹; kon [6]: 43200 M⁻¹ s⁻¹; t½ [6]: 14 min; 900 nM or 100 nM Ag Bound (RU) [7]: 2 RU; MFI - Normalized to Unstained Control [8]: 1160 fold |
| mAb29226 (antibody, human IgG4 S228P, kappa, V domains shown) VH: EVQLVESGGGLVQPGRSLRLSCAASGFTFDDYGMHWVRQAPGKGLEWVSVISWNSATIDYADSVKGRFTISRDNAKNSLFLQMNSLRPEDTALYYCAKKNSLGWFFDYWGQGTLVTVSS VL: not shown | 188 RU | 0.767 nM | 0.000161 s⁻¹ | 210000 M⁻¹ s⁻¹ | 72 min | 57 RU | 8.27 nM | 0.000937 s⁻¹ | 113000 M⁻¹ s⁻¹ | 12 min | 2 RU | 70% | 7.3e-10 M | 212 RU | 1.53 nM | 0.000521 s⁻¹ | 340000 M⁻¹ s⁻¹ | 22 min | 68 RU | 25 nM | binding result [3]: no binding (tested: 900 nM or 100 nM); koff [6]: 0.00456 s⁻¹; kon [6]: 182000 M⁻¹ s⁻¹; t½ [6]: 2.5 min; 900 nM or 100 nM Ag Bound (RU) [7]: 2 RU; MFI - Normalized to Unstained Control [8]: 1900 fold |
